Consider 83 variants from the RNAGym collection of RNA variant scans (doi:10.1093/molbev/msab373).

B1: Azoarcus group I ribozyme (parent)
chain: GUGCCUUGCGCCGGGAAACCACGCAAGGGAUGGUGUCAAAUUCGGCGAAACCUAAGCGCCCGCCCGGGCGUAUGGCAACGCCGAGCCAAGCUUCGGCGCCUGCGCCGAUGAAGGUGUAGAGACUAGACGGCACCCACCUAAGGCAAACGCUAUGGUGAAGGCAUAGUCCAGGGAGUGGCGAAAGUCACACAAACCGG

The series covers variants of B1. As to the kind of experiment: reverse-splicing fitness (ratio to wild type); higher = more active; in vitro selection; Mg2+ level not given. The method in brief:
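An in vitro group I ribozyme library with randomized positions was T7-transcribed and gel-purified. In triplicate, 10 pmol RNA in EPPS pH 7.5 was reacted with 50 pmoles of a 30-nt RNA substrate for 1 h at 37 °C across several added MgCl2 levels (1–48 mM), then stopped with EDTA. Products were reverse transcribed from a substrate-complementary primer, PCR-amplified and sequenced (HiSeq 4000). Fitness is a variant's read proportion after selection over that before, normalised to wild type.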
For C82U A111C A120U C150U C169A, the reverse-splicing fitness is 0.00496.

Take C82U A111C A120U C150U C169G: the reverse-splicing fitness was found to be 0.00449.

C82U A111C A120U C150U C169U: the reverse-splicing fitness was 0.00505.

For C82U A111C A120U C150A C169G U176G, the reverse-splicing fitness is 0.00237.

For the variant C82U A111C A120U C150A C169G U176C, the reverse-splicing fitness turned out to be 0.00392.

With C82U A111C A120U C150A C169G U176A, the reverse-splicing fitness turned out to be 0.00492.

With C82U A111C A120U A145U C150G C169G U176C, the reverse-splicing fitness was 0.00224.

As for C82U A111C A120U A145U C150G C169G U176A, the reverse-splicing fitness was 0.00332.

C82U A111C A120U A145U C150G C169G U176G: the reverse-splicing fitness stood at 0.0024.

Consider C82U A111C A120U A145U C150U U176C, for which the reverse-splicing fitness was determined as 0.0089.

Turning to C82U A111C A120U A145U C150U U176G, the reverse-splicing fitness worked out at 0.0027.

C82U A111C A120U A145U C150U U176A: the reverse-splicing fitness was 0.00562.

For C82U A111C A120U C169A, the reverse-splicing fitness was 0.00322.

In the case of C82U A111C A120U C169U, the reverse-splicing fitness was 0.00529.

For the variant C82U A111C A120U C169G, the reverse-splicing fitness stood at 0.00401.

As for C82U A111C A120G C150A C169G U176A, the reverse-splicing fitness is 0.0168.

Take C82U A111C A120G C150A C169G U176G: the reverse-splicing fitness came out at 0.00479.

On to C82U A111C A120G C150A C169G U176C, for which the reverse-splicing fitness amounted to 0.0202.

Regarding C82U A111C A120U A145C C150A U176G, the reverse-splicing fitness was determined as 0.00265.

As to C82U A111C A120U A145C C150A U176C, the reverse-splicing fitness was found to be 0.00397.

On to C82U A111C A120U A145C C150A U176A, for which the reverse-splicing fitness was 0.00307.

As for C82U A111C A120G C150A C169A U176G, the reverse-splicing fitness worked out at 0.00529.

As for C82U A111C A120G C150A C169A U176A, the reverse-splicing fitness stood at 0.0163.

With C82U A111C A120G C150A C169A U176C, the reverse-splicing fitness is 0.0186.

Regarding C82U A111C A120G C150U C169G U176A, the reverse-splicing fitness came to 0.0121.

Take C82U A111C A120G C150U C169G U176C: the reverse-splicing fitness stood at 0.0161.

As for C82U A111C A120G C150U C169G U176G, the reverse-splicing fitness amounted to 0.00441.

As for C82U A111C A120G A145U U176G, the reverse-splicing fitness came out at 0.00452.

On to C82U A111C A120U A145U C150A C169U, for which the reverse-splicing fitness came to 0.00262.

Take C82U A111C A120U A145U C150A C169A: the reverse-splicing fitness came to 0.00298.

As to C82U A111C A120U A145U C150A C169G, the reverse-splicing fitness was determined as 0.00265.

C82U A111C A120U A145G C150A C169G U176G: the reverse-splicing fitness is 0.00246.

Turning to C82U A111C A120U A145G C150A C169G U176C, the reverse-splicing fitness amounted to 0.00549.

Consider C82U A111C A120U A145G C150A C169G U176A, for which the reverse-splicing fitness worked out at 0.00613.

Take C82U A111C A120U A145U C169U U176C: the reverse-splicing fitness turned out to be 0.00255.

On to C82U A111C A120U A145U C169U U176A, for which the reverse-splicing fitness amounted to 0.00256.

C82U A111C A120U A145U C169U U176G: the reverse-splicing fitness stood at 0.00166.

C82U A111C A120U A145C C150A C169G U176G: the reverse-splicing fitness turned out to be 0.00223.

Turning to C82U A111C A120U A145C C150A C169G U176A, the reverse-splicing fitness worked out at 0.00308.

For the variant C82U A111C A120U A145C C150A C169G U176C, the reverse-splicing fitness was 0.00318.

For C82U A111C A120U A145G C150G C169A U176G, the reverse-splicing fitness came out at 0.00495.

As for C82U A111C A120U A145G C150G C169A U176C, the reverse-splicing fitness came out at 0.00788.

As to C82U A111C A120U A145G C150G C169A U176A, the reverse-splicing fitness was 0.0114.

Consider C82U A111C A120U C150A C169U U176A, for which the reverse-splicing fitness was determined as 0.00699.

On to C82U A111C A120U C150A C169U U176C, for which the reverse-splicing fitness was found to be 0.0037.

C82U A111C A120U C150A C169U U176G: the reverse-splicing fitness is 0.00241.

Consider C82U A111C A120U C150G C169A U176C, for which the reverse-splicing fitness turned out to be 0.00467.

On to C82U A111C A120U C150G C169A U176A, for which the reverse-splicing fitness came to 0.00624.

Turning to C82U A111C A120U C150G C169A U176G, the reverse-splicing fitness was 0.00261.

With C82U A111C A120U A145C C150A C169A, the reverse-splicing fitness turned out to be 0.00255.

Turning to C82U A111C A120U A145C C150A C169G, the reverse-splicing fitness amounted to 0.00233.

Turning to C82U A111C A120U A145C C150A C169U, the reverse-splicing fitness worked out at 0.00301.

Turning to C82U A111C A120U C150G C169G, the reverse-splicing fitness stood at 0.00621.

In the case of C82U A111C A120U C150G C169U, the reverse-splicing fitness turned out to be 0.00611.

Regarding C82U A111C A120U C150G C169A, the reverse-splicing fitness turned out to be 0.00691.

Consider C82U A111C A120U C169G U176A, for which the reverse-splicing fitness was found to be 0.0032.

For C82U A111C A120U C169G U176C, the reverse-splicing fitness is 0.0039.

C82U A111C A120U C169G U176G: the reverse-splicing fitness was found to be 0.00177.

For C82U A111C A120U A145G C169A, the reverse-splicing fitness amounted to 0.00276.

For the variant C82U A111C A120U A145G C169U, the reverse-splicing fitness is 0.00448.

In the case of C82U A111C A120U A145G C169G, the reverse-splicing fitness is 0.0042.

Turning to C82U A111C A120G C150G, the reverse-splicing fitness was 0.00744.

On to C82U A111C A120G C150U, for which the reverse-splicing fitness was determined as 0.0115.

C82U A111C A120G C150A: the reverse-splicing fitness was 0.00908.

Take C82U A111C A120U C150A C169U: the reverse-splicing fitness was determined as 0.00491.

C82U A111C A120U C150A C169G: the reverse-splicing fitness amounted to 0.00399.

On to C82U A111C A120U C150A C169A, for which the reverse-splicing fitness is 0.00472.

Turning to C82U A111C A120G C169A U176G, the reverse-splicing fitness stood at 0.00418.

Turning to C82U A111C A120G C169A U176A, the reverse-splicing fitness was found to be 0.0141.

For C82U A111C A120G C169A U176C, the reverse-splicing fitness worked out at 0.019.

C82U A111C A120U A145U C169A: the reverse-splicing fitness worked out at 0.00238.

On to C82U A111C A120U A145U C169U, for which the reverse-splicing fitness is 0.00366.

As for C82U A111C A120U A145U C169G, the reverse-splicing fitness stood at 0.00369.

C82U A111C A120U A145G C150U C169A: the reverse-splicing fitness was found to be 0.00649.

As for C82U A111C A120U A145G C150U C169G, the reverse-splicing fitness stood at 0.00549.

In the case of C82U A111C A120U A145G C150U C169U, the reverse-splicing fitness was 0.00521.

As for C82U A111C A120U A145U C150A U176A, the reverse-splicing fitness is 0.00357.

In the case of C82U A111C A120U A145U C150A U176C, the reverse-splicing fitness was 0.00465.

In the case of C82U A111C A120U A145U C150A U176G, the reverse-splicing fitness is 0.00247.

C82U A111C A120U A145G C150G U176A: the reverse-splicing fitness is 0.00648.

In the case of C82U A111C A120U A145G C150G U176G, the reverse-splicing fitness was determined as 0.00395.

As to C82U A111C A120U A145G C150G U176C, the reverse-splicing fitness worked out at 0.00806.

For C82U A111C A120U C150G U176C, the reverse-splicing fitness was determined as 0.00605.
